Blank lines part the entries; values can stand above or below the binder they belong to. Numbered stars: 1 amine (or outer) side, 2 acyl side, 3 side chain; on linkers, the order of the positions; unused ones are H or OH. Square brackets hold non-standard residues; d marks the D form. Side chains are listed from the residue outwards. Ends that are not written are not given here. * marks the point of attachment. γGlu = O=C(O)[C@H](CCC(=O)[*:2])N[*:1]; Palmitoyl = CCCCCCCCCCCCCCCC(=O)*; Myristoyl = CCCCCCCCCCCCCC(=O)*; Aib = CC(C)(N)C(=O)O
Key:
Experiment in all cases: cell-based or functional assay
[1] = target: T1, GLP-1 receptor (UniProt P43220 24-463, limits assumed)
[2] = target: T2, glucagon receptor (human, UniProt P47871 26-477)
[3] = target: T1, GLP-1 receptor; remark: listed apart in the source
[4] = target: T2, glucagon receptor; remark: listed apart in the source
[5] = target: T1, GLP-1 receptor; remark: listed apart in the source
[6] = target: T2, glucagon receptor; remark: listed apart in the source
[7] = target: T2, glucagon receptor; remark: listed apart in the source
[8] = target: T2, glucagon receptor; remark: listed apart in the source
[9] = target: T1, GLP-1 receptor; remark: listed apart in the source
[10] = target: T2, glucagon receptor; remark: listed apart in the source

T2 sequence (P47871 26-477): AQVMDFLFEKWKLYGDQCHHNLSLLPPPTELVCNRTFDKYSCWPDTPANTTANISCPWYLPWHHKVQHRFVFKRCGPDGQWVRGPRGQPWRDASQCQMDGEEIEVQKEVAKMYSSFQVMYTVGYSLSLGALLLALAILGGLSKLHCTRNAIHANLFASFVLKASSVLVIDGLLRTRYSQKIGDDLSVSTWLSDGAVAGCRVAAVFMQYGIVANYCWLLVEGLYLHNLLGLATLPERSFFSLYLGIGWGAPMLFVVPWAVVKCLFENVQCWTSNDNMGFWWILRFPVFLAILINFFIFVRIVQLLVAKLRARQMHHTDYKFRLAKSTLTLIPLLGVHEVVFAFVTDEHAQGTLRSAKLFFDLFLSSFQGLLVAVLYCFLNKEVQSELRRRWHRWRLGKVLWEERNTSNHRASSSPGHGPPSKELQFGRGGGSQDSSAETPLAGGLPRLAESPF

EC50 at the GLP-1 receptor [1]: 41 pM | EC50 at the glucagon receptor [2]: 76 pM
B1: Peptide dS2K10(C16)E16K20-Gluc Amide (peptide)
peptide: HXQGTFTSDKSKYLDERRAKDFVQWLMNT
modifications: d-Ser at position 2; Lys at position 10 acylated with a C16 fatty acyl group; C-terminal amide

GLP-1 Receptor, Average (assay of Example 13) [3]: 13.6 nM | Glucagon Receptor, Average (assay of Example 13) [4]: 0.26 nM
Binder: HSQGTFTSDYSKYLD[Aib]RRA[Aib]DFVQWLMNT [AIB 16, 20 Glucagon]

EC50 at GLP-1 Receptor [5]: 8 pM | EC50 at Glucagon Receptor [6]: 9 pM
B2: Peptide 78** (Table 11) (peptide)
peptide: H[Aib]QGTFTSDK([γGlu-γGlu-Myristoyl])SKYLD[Aib]RRAQDFVCWLMNT-NH2
modifications: N-terminus assumed
SMILES: CCCCCCCCCCCCCC(=O)N[C@@H](CCC(=O)N[C@@H](CCC(=O)NCCCC[C@H](NC(=O)[C@H](CC(=O)O)NC(=O)[C@H](CO)NC(=O)[C@@H](NC(=O)[C@H](Cc1ccccc1)NC(=O)[C@@H](NC(=O)CNC(=O)[C@H](CCC(N)=O)NC(=O)C(C)(C)NC(=O)[C@@H](N)Cc1c[nH]cn1)[C@@H](C)O)[C@@H](C)O)C(=O)N[C@@H](CO)C(=O)N[C@@H](CCCCN)C(=O)N[C@@H](Cc1ccc(O)cc1)C(=O)N[C@@H](CC(C)C)C(=O)N[C@@H](CC(=O)O)C(=O)NC(C)(C)C(=O)N[C@@H](CCCNC(=N)N)C(=O)N[C@@H](CCCNC(=N)N)C(=O)N[C@@H](C)C(=O)N[C@@H](CCC(N)=O)C(=O)N[C@@H](CC(=O)O)C(=O)N[C@@H](Cc1ccccc1)C(=O)N[C@H](C(=O)N[C@@H](CS)C(=O)N[C@@H](Cc1c[nH]c2ccccc12)C(=O)N[C@@H](CC(C)C)C(=O)N[C@@H](CCSC)C(=O)N[C@@H](CC(N)=O)C(=O)N[C@H](C(N)=O)[C@@H](C)O)C(C)C)C(=O)O)C(=O)O

GLP-1 Receptor, Average (assay of Example 13) [3]: 12.2 nM
Binder: HSQGTFTSDYSKYLD[Aib]RRA[Aib]DFV[Aib]WLMNT [AIB 16, 20, 24 Glucagon]

EC50 at the GLP-1 receptor [1]: 840 pM | EC50 at the glucagon receptor [2]: 3530 pM
B3: Peptide dS2E16K20K30-C14 Gluc Amide (peptide)
peptide: HXQGTFTSDYSKYLDERRAKDFVQWLMNTK
modifications: d-Ser at position 2; Lys at position 30 acylated with a C14 fatty acyl group; C-terminal amide

EC50 at the GLP-1 receptor [1]: 41 pM | EC50 at the glucagon receptor [2]: 155 pM
B4: Peptide dS2K10(C14)E16K20-Gluc Amide (peptide)
peptide: HXQGTFTSDKSKYLDERRAKDFVQWLMNT
modifications: d-Ser at position 2; Lys at position 10 acylated with a C14 fatty acyl group; C-terminal amide

EC50 at GLP-1 Receptor [5]: 8 pM | EC50 at Glucagon Receptor [6]: 10 pM
B5: Peptide 79** (Table 11) (peptide)
peptide: H[Aib]QGTFTSDK([Ala-Ala-Palmitoyl])SKYLD[Aib]RRAQDFVCWLMNT-NH2
modifications: N-terminus assumed
SMILES: CCCCCCCCCCCCCCCC(=O)N[C@@H](C)C(=O)N[C@@H](C)C(=O)NCCCC[C@H](NC(=O)[C@H](CC(=O)O)NC(=O)[C@H](CO)NC(=O)[C@@H](NC(=O)[C@H](Cc1ccccc1)NC(=O)[C@@H](NC(=O)CNC(=O)[C@H](CCC(N)=O)NC(=O)C(C)(C)NC(=O)[C@@H](N)Cc1c[nH]cn1)[C@@H](C)O)[C@@H](C)O)C(=O)N[C@@H](CO)C(=O)N[C@@H](CCCCN)C(=O)N[C@@H](Cc1ccc(O)cc1)C(=O)N[C@@H](CC(C)C)C(=O)N[C@@H](CC(=O)O)C(=O)NC(C)(C)C(=O)N[C@@H](CCCNC(=N)N)C(=O)N[C@@H](CCCNC(=N)N)C(=O)N[C@@H](C)C(=O)N[C@@H](CCC(N)=O)C(=O)N[C@@H](CC(=O)O)C(=O)N[C@@H](Cc1ccccc1)C(=O)N[C@H](C(=O)N[C@@H](CS)C(=O)N[C@@H](Cc1c[nH]c2ccccc12)C(=O)N[C@@H](CC(C)C)C(=O)N[C@@H](CCSC)C(=O)N[C@@H](CC(N)=O)C(=O)N[C@H](C(N)=O)[C@@H](C)O)C(C)C

EC50 at GLP-1 Receptor [5]: 63 pM | EC50 at Glucagon Receptor [6]: 144 pM
B6: Peptide 77** (Table 11) (peptide)
peptide: H[Aib]QGTFTSDK(Myristoyl)SKYLD[Aib]RRAQDFVCWLMNT-NH2
modifications: N-terminus assumed
SMILES: CCCCCCCCCCCCCC(=O)NCCCC[C@H](NC(=O)[C@H](CC(=O)O)NC(=O)[C@H](CO)NC(=O)[C@@H](NC(=O)[C@H](Cc1ccccc1)NC(=O)[C@@H](NC(=O)CNC(=O)[C@H](CCC(N)=O)NC(=O)C(C)(C)NC(=O)[C@@H](N)Cc1c[nH]cn1)[C@@H](C)O)[C@@H](C)O)C(=O)N[C@@H](CO)C(=O)N[C@@H](CCCCN)C(=O)N[C@@H](Cc1ccc(O)cc1)C(=O)N[C@@H](CC(C)C)C(=O)N[C@@H](CC(=O)O)C(=O)NC(C)(C)C(=O)N[C@@H](CCCNC(=N)N)C(=O)N[C@@H](CCCNC(=N)N)C(=O)N[C@@H](C)C(=O)N[C@@H](CCC(N)=O)C(=O)N[C@@H](CC(=O)O)C(=O)N[C@@H](Cc1ccccc1)C(=O)N[C@H](C(=O)N[C@@H](CS)C(=O)N[C@@H](Cc1c[nH]c2ccccc12)C(=O)N[C@@H](CC(C)C)C(=O)N[C@@H](CCSC)C(=O)N[C@@H](CC(N)=O)C(=O)N[C@H](C(N)=O)[C@@H](C)O)C(C)C

EC50 at GLP-1 Receptor [5]: 18 pM
B7: Peptide 81** (Table 11) (peptide)
peptide: H[Aib]QGTFTSDK([Ala-Ala-Myristoyl])SKYLD[Aib]RRAQDFVCWLMNT-NH2
modifications: N-terminus assumed
SMILES: CCCCCCCCCCCCCC(=O)N[C@@H](C)C(=O)N[C@@H](C)C(=O)NCCCC[C@H](NC(=O)[C@H](CC(=O)O)NC(=O)[C@H](CO)NC(=O)[C@@H](NC(=O)[C@H](Cc1ccccc1)NC(=O)[C@@H](NC(=O)CNC(=O)[C@H](CCC(N)=O)NC(=O)C(C)(C)NC(=O)[C@@H](N)Cc1c[nH]cn1)[C@@H](C)O)[C@@H](C)O)C(=O)N[C@@H](CO)C(=O)N[C@@H](CCCCN)C(=O)N[C@@H](Cc1ccc(O)cc1)C(=O)N[C@@H](CC(C)C)C(=O)N[C@@H](CC(=O)O)C(=O)NC(C)(C)C(=O)N[C@@H](CCCNC(=N)N)C(=O)N[C@@H](CCCNC(=N)N)C(=O)N[C@@H](C)C(=O)N[C@@H](CCC(N)=O)C(=O)N[C@@H](CC(=O)O)C(=O)N[C@@H](Cc1ccccc1)C(=O)N[C@H](C(=O)N[C@@H](CS)C(=O)N[C@@H](Cc1c[nH]c2ccccc12)C(=O)N[C@@H](CC(C)C)C(=O)N[C@@H](CCSC)C(=O)N[C@@H](CC(N)=O)C(=O)N[C@H](C(N)=O)[C@@H](C)O)C(C)C

Observed EC50s (nM) in Cells Overexpressing the Glucagon Receptor, Test 2 [7]: 0.04 nM
Binder: HSQGTFTSDYSKYLDSRRAQDFVQWLMNTE [glucagon analog E30]

EC50, in vitro activity at the glucagon receptor [8]: 80 pM
Binder: HSQGTFTSDYSKYLD[Aib]RRAQDFVQWLMDE [AIB 16/D28/E29 Glucagon]

Observed EC50s (nM) in Cells Overexpressing the Glucagon Receptor, Test 2 [7]: 0.12 nM
Binder: HSQGTFTSDYSKYLDSRRAQDFVQWLMNTKK [glucagon analog K30, K31]

Observed EC50s (nM) in Cells Overexpressing the Glucagon Receptor, Test 3 [7]: 0.05 nM
Binder: HSQGTFTSDYSKYLDSRRAQDFVQWLMDTE [glucagon analog D28, E30]

EC50 at GLP-1 Receptor [5]: 8 pM | EC50 at Glucagon Receptor [6]: 6 pM
B8: Peptide 80** (Table 11) (peptide)
peptide: H[Aib]QGTFTSDK([γGlu-γGlu-Palmitoyl])SKYLD[Aib]RRAQDFVCWLMNT-NH2
modifications: N-terminus assumed
SMILES: CCCCCCCCCCCCCCCC(=O)N[C@@H](CCC(=O)N[C@@H](CCC(=O)NCCCC[C@H](NC(=O)[C@H](CC(=O)O)NC(=O)[C@H](CO)NC(=O)[C@@H](NC(=O)[C@H](Cc1ccccc1)NC(=O)[C@@H](NC(=O)CNC(=O)[C@H](CCC(N)=O)NC(=O)C(C)(C)NC(=O)[C@@H](N)Cc1c[nH]cn1)[C@@H](C)O)[C@@H](C)O)C(=O)N[C@@H](CO)C(=O)N[C@@H](CCCCN)C(=O)N[C@@H](Cc1ccc(O)cc1)C(=O)N[C@@H](CC(C)C)C(=O)N[C@@H](CC(=O)O)C(=O)NC(C)(C)C(=O)N[C@@H](CCCNC(=N)N)C(=O)N[C@@H](CCCNC(=N)N)C(=O)N[C@@H](C)C(=O)N[C@@H](CCC(N)=O)C(=O)N[C@@H](CC(=O)O)C(=O)N[C@@H](Cc1ccccc1)C(=O)N[C@H](C(=O)N[C@@H](CS)C(=O)N[C@@H](Cc1c[nH]c2ccccc12)C(=O)N[C@@H](CC(C)C)C(=O)N[C@@H](CCSC)C(=O)N[C@@H](CC(N)=O)C(=O)N[C@H](C(N)=O)[C@@H](C)O)C(C)C)C(=O)O)C(=O)O

cAMP Induction, EC50 [9]: 410 pM | cAMP Induction, EC50 [10]: 810 pM
Binder: HSQGTFTSDYSRYLDSRRAQDFVQWLMNK [Glucagon R12 K29]

EC50 at the GLP-1 receptor [1]: 3050 pM | EC50 at the glucagon receptor [2]: 4890 pM
B9: Peptide dS2E16K20K30-C16 Gluc Amide (peptide)
peptide: HXQGTFTSDYSKYLDERRAKDFVQWLMNTK
modifications: d-Ser at position 2; Lys at position 30 acylated with a C16 fatty acyl group; C-terminal amide

Observed EC50s (nM) in Cells Overexpressing the Glucagon Receptor, Test 3 [7]: 0.15 nM
Binder: HSQGTFTSDYSKYLESRRAQDFVQWLMDT [glucagon analog D28, E15]

Observed EC50s (nM) in Cells Overexpressing the Glucagon Receptor, Test 3 [7]: 0.03 nM | EC50, in vitro activity at the glucagon receptor [8]: 60 pM
Binder: HSQGTFTSDYSKYLDSRRAQDFVQWLMDE [D28/E29 Glucagon]

— patent US20110190200A1 (INDIANA UNIVERSITY RESEARCH AND TECHNOLOGY, published 2011)
